According to publication PMC4287381 (Virology, 2009):

Molecular target: GST-p53 C-terminal domain (residues 300–393) (human, UniProt P04637 300-393)
Assay: pull-down

Sequence of GST-p53 C-terminal domain (residues 300–393) (P04637 300-393): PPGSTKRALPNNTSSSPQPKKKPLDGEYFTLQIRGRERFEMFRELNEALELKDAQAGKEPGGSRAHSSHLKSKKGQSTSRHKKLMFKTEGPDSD

B1: Full-length EBNA3C, in vitro translated, 35S-labelled (natural protein)
chain: MESFEGQGDSRQSPDNERGDNVQTTGEHDQDPGPGPPSSGASERLVPEESYSRDQQPWGQSRGDENRGWMQRIRRRRRRRAALSGHLLDTEDNVPPWLPPHDITPYTARNIRDAACRAVKQSHLQALSNLILDSGLDTQHILCFVMAARQRLQDIRRGPLVAEGGVGWRHWLLTSPSQSWPMGYRTATLRTLTPVPNRVGADSIMLTATFGCQNAARTLNTFSATVWTPPHAGPREQERYAREAEVRFLRGKWQRRYRRIYDLIELCGSLHHIWQNLLQTEENLLDFVRFMGVMSSCNNPAVNYWFHKTIGNFKPYYPWNAPPNENPYHARRGIKEHVIQNAFRKAQIQGLSMLATGGEPRGDATSETSSDEDTGRQGSDVELESSDDELPYIDPNMEPVQQRPVMFVSRVPAKKPRKLPWPTPKTHPVKRTNVKTSDRSDKAEAQSTPERPGPSEQSSVTVEPAHPTPVEMPMVILHQPPPVPKPVPVKPTPPPSRRRRGACVVYDDDVIEVIDVETTEDSSSVSQPNKPHRKHQDGFQRSGRRQKRAAPPTVSPSDTGPPAVGPPAAGPPAAGPPAAGPPAAGPPAAGPPAAGPRILAPLSAGPPAAGPHIVTPPSARPRIMAPPVVRMFMRERQLPQSTGRKPQCFWEMRAGREITQMQQEPSSHLQSATQPTTPRPSWAPSVCALSVMDAGKAQPIESSHLSSMSPTQPISHEEQPRYEDPDAPLDLSLHPDVAAQPAPQAPYQGYQEPPAPQAPYQGYQEPPPPQAPYQGYQEPPAHGLQSSSYPGYAGPWTPRSQHPCYRHPWAPWSQDPVHGHTQGPWDPRAPHLPPQWDGSAGHGQDQVSQFPHLQSETGPPRLQLSLVPLVSSSAPSWSSPQPRAPIRPIPTRFPPPPMPLQDSMAVGCDSSGTACPSMPFASDYSQGAFTPLDINATTPKRPRVEESSHGPARCSQATAEAQEILSDNSEISVFPKDAKQTDYDASTESELD
modifications: 35S methionine label
- fold interaction against the DNA binding domain of p53 (residues 100–300): 1.7 fold
